# Laboratory results taken from the supplement of paper PMC7125110.
# ± gives the standard error. Variants at the floor of the assay were thinned out.
# B1: glmS ribozyme (parent)
# chain: AUAAAAGCGCCAGAACUACAGAAAUGUAGUUGACGAGGAGGAGGUUUAUCGAAUUUUCGGCGGAUGCCUCCAAA
# What was measured:
# Settings in all cases: with glucosamine-6-phosphate
# [1] = variants of: B1; assay: self-cleavage kobs at 40 uM GlcN6P; higher = faster cleavage; RNA array
# How it was run: (§1)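 Barcoded glmS ribozyme variants on sequenced MiSeq chips were transcribed in situ by E. coli RNA polymerase and tracked through a hybridised Cy3 probe at 37 °C. Glucosamine-6-phosphate (40 μM to 10 mM) in HEPES/KCl/Mg(OAc)2 buffer was flowed in, and tiles were imaged over ~14 h. Signals were normalised to baseline and to non-cleaving reference variants; per-tile medians were fit to one- or two-exponential decays to give kobs. kcat and KM came from weighted Michaelis–Menten fits across concentrations.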
# [2] = variants of: B1; assay: self-cleavage kobs at 640 uM GlcN6P; higher = faster cleavage; RNA array
# How it was run: as §1
# [3] = variants of: B1; assay: self-cleavage kobs at 10000 uM GlcN6P; higher = faster cleavage; RNA array
# How it was run: as §1
# [4] = variants of: B1; assay: self-cleavage kobs at 2500 uM GlcN6P; higher = faster cleavage; RNA array
# How it was run: as §1
# [5] = variants of: B1; assay: self-cleavage kobs at 160 uM GlcN6P; higher = faster cleavage; RNA array
# How it was run: as §1
Variant,self-cleavage kobs at 40 uM GlcN6P [1],self-cleavage kobs at 640 uM GlcN6P [2],self-cleavage kobs at 10000 uM GlcN6P [3],self-cleavage kobs at 2500 uM GlcN6P [4],self-cleavage kobs at 160 uM GlcN6P [5]
AUAAAAGCGCCAGAACUACAGAAAUGUAGUUGACGAGGAGGAGGUUUAUCGAAUUUUCAGCGGGUGCCGCCAAA [G59A A64G U69G],< 1e-05 s⁻¹,,,,
AUAAAAGCGCCAGAAUUACAGAAAUGUAGUUGACGAGGAGGAGGUUUAUAGCAUUUUCGGCGGACUCCUCCAAA [C16U C50A A52C U65C G66U],< 1e-05 s⁻¹,< 1e-05 s⁻¹,,,
AUAAAAGCGUCAGAACUACAGAAAUGUAGUUGACGACGAGGAGGUUUAUCGAAUUUUCGGCGGAUACCUCCAAA [C10U G37C G66A],< 1e-05 s⁻¹,,,,
AUAAAAGCUCCAGAACUACAGAAAUGUAGCUGACGAGGAGGAAGUUUAUCGAAUUUUCGGCGGAUGCCUCCAAA [G9U U30C G43A],< 1e-05 s⁻¹,< 1e-05 s⁻¹,,,
AUAAAAGCGCCAGAACUACAGAAAUGUAGUUGACAAGGAGGAGGUUUAUCGAAUUUUCGGCGGUUGCCUCAAAA [G35A A64U C71A],< 1e-05 s⁻¹,,,,
AUAAAAGCGCCGGAACUACAGAAAUGUAGUUGACGAGGAUGAGGUUUAUCGAAGUUUCGGCGGAUGCCUCCAAA [A12G G40U U54G],< 1e-05 s⁻¹,,0.000231 ± 6e-05 s⁻¹,,
AUAAAAGAGCCAGAACUACAGAAAUGUAGUUGAGGAGGAGGAGGUUUAUCGUAUUUUCGGCGGAUGUCUCCAAA [C8A C34G A52U C67U],< 1e-05 s⁻¹,,< 1e-05 s⁻¹,,
AUAAAAGCGUCAGAACUACAGAAAUGUAGUUGACGAGGAGGAGGUUUAUCGUAUUUUCGGCGGAAGCCUCCAAA [C10U A52U U65A],< 1e-05 s⁻¹,< 1e-05 s⁻¹,< 1e-05 s⁻¹,< 1e-05 s⁻¹,
AUAAAAGCGCCAGAACUACAGAAAUGUAGUUGACGAGGAGGAGGUUUAUCGACUUUCCGGCGGAUGGCUCCAAA [A53C U57C C67G],< 1e-05 s⁻¹,,< 1e-05 s⁻¹,,
AUAAAAGCGCCAGAACUACAGAAAUGUAGUUGACGAGGGGGAGGUUUAUCUAAUUUUCGGCGGAUGCCUCCAAA [A39G G51U],< 1e-05 s⁻¹,< 1e-05 s⁻¹,< 1e-05 s⁻¹,< 1e-05 s⁻¹,< 1e-05 s⁻¹
AUAAAAGCGCCAGAACUACAGAAAUGUAGUUGACGAGGAGGAGGUCUAUCGAAUUUUCGGUGGAUGCCUCCAAA [U46C C61U],< 1e-05 s⁻¹,< 1e-05 s⁻¹,,< 1e-05 s⁻¹,< 1e-05 s⁻¹
AUAAAAGCGUCAGAACUACAGAAAUGUAGUUGCCGAGGAGGAGGUUUAUCGAAUUUUCGGCGGAUGCCUCCAAA [C10U A33C],< 1e-05 s⁻¹,< 1e-05 s⁻¹,,< 1e-05 s⁻¹,< 1e-05 s⁻¹
AUAAAAGCGCCAGAGCUACAGAAAUGUAGUUGACGAGGAGGAGGUUUACCGAAUUUUCGGCGGAUGCCUCCAAA [A15G U49C],< 1e-05 s⁻¹,< 1e-05 s⁻¹,,,
AUAAAAGCUCCAGAGCUACAGAAAUGUAGUUGACGAGGAGGAGGUUUAUCGAAUUUUCGGCGGAUGCCUCCAAA [G9U A15G],< 1e-05 s⁻¹,< 1e-05 s⁻¹,,< 1e-05 s⁻¹,
AUAAAAGCGCCAGGACUACAGAAAUGUAGUUGACGAGGAGGAGGUUUAUCGAAUUUUCGGCGGAUGUCUCCAAA [A14G C67U],0.000746 ± 0.00014 s⁻¹,0.00612 ± 0.00075 s⁻¹,,0.0171 ± 0.0057 s⁻¹,0.00183 ± 0.00033 s⁻¹
